Our source for the Km and kcat values is paper PMC10153361, “Mechanism of imidazole inhibition of a GH1 β‐glucosidase” (FEBS Open Bio, 2023).

Substrate in this data set: O=[N+]([O-])c1ccc(O[C@@H]2O[C@H](CO)[C@@H](O)[C@H](O)[C@H]2O)cc1
In words: purified protein. Format: biochemical, Spodoptera frugiperda. The note with it: 100 mM phosphate pH 6.0, 30 °C.

B1: Sfβgly (GH1 β-glucosidase from Spodoptera frugiperda) (Spodoptera frugiperda) (protein)
chain: QQRRFPDDFLFGTATASYQIEGAWDEDGKGENIWDYMVHNTPEVIRDLSNGDIAADSYHNYKRDVEMMRELGLDAYRFSLSWARILPTGMANEVNPAGIAFYNNYIDEMLKYNITPLITLYHWDLPQKLQELGGFANPLISDWFEDYARVVFENFGDRVKMFITFNEPREICFEGYGSATKAPILNATAMGAYLCAKNLVTAHAKAYYLYDREFRPVQGGQCGITISVNWFGPATPTPEDEMAAELRRQGEWGIYAHPIFSAEGGFPKELSDKIAEKSAQQGYPWSRLPEFTEEEKAFVRGTSDLIGVNHYTAFLVSATERKGPYPVPSLLDDVDTGSWADDSWLKSASAWLTLAPNSIHTALTHLNNLYNKPVFYITENGWSTDESRENSLIDDDRIQYYRASMESLLNCLDDGINLKGYMAWSLMDNFEWMEGYIERFGLYEVDFSDPARTRTPRKAAFVYKHIIKHRVVDYEYEPETMVMTIDEGH
notes: recombinant, E. coli BL21(DE3), vector pET46, Ni-NTA purified; secreted digestive midgut enzyme; catalytic residues E187 and E399
Consider B1, for which the Km is 1730 ± 40 µM and the kcat amounted to 1.33 ± 0.333 s⁻¹.

Usually Km stands for the substrate concentration at which the rate is half of its maximum. Usually kcat stands for the number of substrate molecules converted per active site and unit of time at saturation.
